The conditions of data set [1]: adult males of approximately 75 kg, bolus injection; cited from earlier work.
Data set [2] can be described thus: Gamma camera imaging of radio-labelled ANF uptake in green vervet monkey. In kind it is in vivo. The method, then:
ANF 99-126, rat form: 5 μg) was labelled by the inventors with ^125 I (1 mCi, obtained from commercial sources) using the lactoperoxidase method. The labelled compound was purified on HPLC (C-18 μBondapak™ column) by known methods. 250 μCi of the ^125 I ANF was administered to a 7 kg male monkey of green vervet species, as an intravenous bolus, under pentobarbital anesthesia. Prior to the experiment, the monkey was kept in a single cage with free access to food and water. The animal was subjected to data acquisition for 60 minutes using, as the scintillation detector, a gamma camera attached to a computer. Images and computer data were acquired at 10 second intervals.
A 7 kg anesthetized monkey which had been previously dehydrated for 18 hours was injected with an intravenous bolus injection of 80 μCi of ^131 I-ANF. […] Serial images (0-5, 5-10, 10-20 min.) and time activity curves were done and analyzed of the following regions of interest: the lungs, the kidneys, the upper and lower abdomen. […]
Serial images (0-7, 7-13, 13-20, 20-26, 26-30 min.) and time-activity curves were obtained and analyzed of the regions of interest over the lungs, kidneys, upper and lower abdomen. […]
The maximum and minimum levels of radioactivity over the 3 hour test period are given in each case.

Data set [3] in a line: Gamma camera study of radio-labelled ANF in rabbits. In kind it is in vivo, rabbit. The method, then:
A gamma camera study was carried out using ^131 I-ANF in domestic rabbits. The animals were sedated using Nembutal and the ANF was injected via the marginal ear vein. Camera images were taken at 100,000 count intervals up to 2.5 hours post injection.
A subsequent study with ^123 I-ANF in New Zealand White rabbits was also carried out. The animals were sedated with Nembutal and ANF was injected via the marginal ear vein. Camera images were taken at 100,000 intervals up to 1.25 hours post injection.

Take `CC[C@H](C)[C@@H]1NC(=O)[C@H](CCCNC(=N)N)NC(=O)[C@H](CC(=O)O)NC(=O)[C@H](CCSC)NC(=O)[C@H](CCCNC(=N)N)NC(=O)CNC(=O)CNC(=O)[C@H](Cc2ccccc2)NC(=O)[C@@H](NC(=O)[C@H](CO)NC(=O)[C@H](CO)NC(=O)[C@H](CCCNC(=N)N)NC(=O)[C@H](CCCNC(=N)N)NC(=O)[C@H](CC(C)C)NC(=O)[C@@H](N)CO)CSSC[C@@H](C(=O)N[C@@H](CC(N)=O)C(=O)N[C@@H](CO)C(=O)N[C@@H](Cc2ccccc2)C(=O)N[C@@H](CCCNC(=N)N)C(=O)N[C@@H](Cc2ccc(O)cc2)C(=O)O)NC(=O)CNC(=O)[C@H](CC(C)C)NC(=O)CNC(=O)[C@H](CO)NC(=O)[C@H](CCC(N)=O)NC(=O)[C@H](C)NC(=O)CNC1=O` [ANF, atrial natriuretic factor]: in data set [1], the “bolus dose giving a medically effective hypotensive effect” value is “greater than 50 μg”.
As to “^131 I-ANF: human ANF (99-126) with methionine in position 110 labelled with ^131 I; in Example 7 rat or human ANF”, in data set [2] (7 kg monkey dehydrated for 18 hours, 80 μCi intravenous bolus), the uptake of radio-label result was “rapid uptake of radio-label particularly by the kidneys and lungs”. Besides, the “uptake of radio-label compared with dehydrated animal” value in data set [2] (7 kg monkey hydrated with 120 cc saline, 65 μCi intravenous) is “lesser uptake of radio-label in both kidney and lung”. In addition, the most prominent organ result in data set [3] (lung also visible) was “kidney was the most prominent organ”. Besides, the “time of rapid accumulation in the kidney” value in data set [3] (post-injection, marginal ear vein, Nembutal sedation) was determined as 3 min.

These data come from patent US5326551A, “Nuclear imaging uses of radio-labelled atrial natriuretic factor” (L'Istitut de Recherches Cliniques de Montreal, priority 1991, dated 1994).
